# Assay results reported in patent publication US20250295799A1 (Zymeworks, published 2025).
# Target: T1, human glypican-3 (GPC3) (human, UniProt P51654 25-554)
# T1 construct: Endogenous on JHH-7, JHH-5, HepG2 and NCI-H446 tumour cells, or transiently expressed on CHO-S cells from a pTT5 plasmid; also called hGPC3; huGPC3
# Assay: flow cytometry on JHH-7 cells (GPC3-high);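 further: antibody binding at 4 °C for 24 h, detected with anti-human AF647 secondary, geometric mean fluorescence of live cells versus antibody concentration, fitted as specific binding with Hill slope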
# Procedure: Briefly, cells were seeded at 50,000 cells/well in V-bottom 96-well plates and treated with antibody for 24 hours at 4° C. to prevent internalization. […] Following incubation and washing, fluorescence was detected by flow cytometry on a BD LSRFortessa™ Cell Analyzer (BD Biosciences, Franklin Lake, NJ) with 1,000 minimum events collected per well. AF647/APC-A GeoMean (fluorescence signal geometric mean, proportional to anti-Human AF647 binding) in live cell population was plotted against antibody concentration using GraphPad Prism Version 9 (GraphPad Software, San Diego, CA). The Bmax, Curve Hill Slope (h) and Kd values were derived from the “Specific binding with Hill slope” nonlinear regression curve fit in GraphPad Prism Version 9.
Binder,Bmax (MFI),Kd
"H18L6_LC_N33H mAb, v40218 (antibody, human IgG1, kappa, V domains shown, M3-H18L6 chains with the stated light chain point mutation, IgG1/kappa) VH: QVQLVQSGAEVKKPGSSVKVSCKASGYTFTDYEMHWVKQAPGHGLEWIGAIDPETGDTAYNQKFKGKATLTADTSTSTAYMELSSLRSEDTAVYYCTRYFSFAYWGQGTLVTVSS VL: EIVLTQSPATLSLSPGERATISCRSSQSLRHSHGNTYLQWYQQKPGQAPRLLIYKVSNRFSGVPARFSGSGSGTDFTLTISSLEPEDFAVYFCYQSKHVPYTFGGGTKVEIKR",8070 MFI,0.77 nM
"H18L6_LC_N33D mAb, v40222 (antibody, human IgG1, kappa, V domains shown, M3-H18L6 chains with the stated light chain point mutation, IgG1/kappa) VH: QVQLVQSGAEVKKPGSSVKVSCKASGYTFTDYEMHWVKQAPGHGLEWIGAIDPETGDTAYNQKFKGKATLTADTSTSTAYMELSSLRSEDTAVYYCTRYFSFAYWGQGTLVTVSS VL: EIVLTQSPATLSLSPGERATISCRSSQSLRHSDGNTYLQWYQQKPGQAPRLLIYKVSNRFSGVPARFSGSGSGTDFTLTISSLEPEDFAVYFCYQSKHVPYTFGGGTKVEIKR",,> 47 nM
"H18L6_LC_N33S mAb, v40221 (antibody, human IgG1, kappa, V domains shown, M3-H18L6 chains with the stated light chain point mutation, IgG1/kappa) VH: QVQLVQSGAEVKKPGSSVKVSCKASGYTFTDYEMHWVKQAPGHGLEWIGAIDPETGDTAYNQKFKGKATLTADTSTSTAYMELSSLRSEDTAVYYCTRYFSFAYWGQGTLVTVSS VL: EIVLTQSPATLSLSPGERATISCRSSQSLRHSSGNTYLQWYQQKPGQAPRLLIYKVSNRFSGVPARFSGSGSGTDFTLTISSLEPEDFAVYFCYQSKHVPYTFGGGTKVEIKR",7220 MFI,0.79 nM
"H18L6_LC_N33T mAb, v40214 (antibody, human IgG1, kappa, V domains shown, M3-H18L6 chains with the stated light chain point mutation, IgG1/kappa) VH: QVQLVQSGAEVKKPGSSVKVSCKASGYTFTDYEMHWVKQAPGHGLEWIGAIDPETGDTAYNQKFKGKATLTADTSTSTAYMELSSLRSEDTAVYYCTRYFSFAYWGQGTLVTVSS VL: EIVLTQSPATLSLSPGERATISCRSSQSLRHSTGNTYLQWYQQKPGQAPRLLIYKVSNRFSGVPARFSGSGSGTDFTLTISSLEPEDFAVYFCYQSKHVPYTFGGGTKVEIKR",9990 MFI,0.75 nM
"H18L6_LC_N33R mAb, v40216 (antibody, human IgG1, kappa, V domains shown, M3-H18L6 chains with the stated light chain point mutation, IgG1/kappa) VH: QVQLVQSGAEVKKPGSSVKVSCKASGYTFTDYEMHWVKQAPGHGLEWIGAIDPETGDTAYNQKFKGKATLTADTSTSTAYMELSSLRSEDTAVYYCTRYFSFAYWGQGTLVTVSS VL: EIVLTQSPATLSLSPGERATISCRSSQSLRHSRGNTYLQWYQQKPGQAPRLLIYKVSNRFSGVPARFSGSGSGTDFTLTISSLEPEDFAVYFCYQSKHVPYTFGGGTKVEIKR",9650 MFI,0.67 nM
"H18L6_LC_N33Q mAb, v40220 (antibody, human IgG1, kappa, V domains shown, M3-H18L6 chains with the stated light chain point mutation, IgG1/kappa) VH: QVQLVQSGAEVKKPGSSVKVSCKASGYTFTDYEMHWVKQAPGHGLEWIGAIDPETGDTAYNQKFKGKATLTADTSTSTAYMELSSLRSEDTAVYYCTRYFSFAYWGQGTLVTVSS VL: EIVLTQSPATLSLSPGERATISCRSSQSLRHSQGNTYLQWYQQKPGQAPRLLIYKVSNRFSGVPARFSGSGSGTDFTLTISSLEPEDFAVYFCYQSKHVPYTFGGGTKVEIKR",7220 MFI,0.67 nM

# Binders with a lower Kd, results first:
Bmax (MFI),Kd,Binder
7870 MFI,0.62 nM,"H18L6_LC_N33A mAb, v40219 (antibody, human IgG1, kappa, V domains shown, M3-H18L6 chains with the stated light chain point mutation, IgG1/kappa) VH: QVQLVQSGAEVKKPGSSVKVSCKASGYTFTDYEMHWVKQAPGHGLEWIGAIDPETGDTAYNQKFKGKATLTADTSTSTAYMELSSLRSEDTAVYYCTRYFSFAYWGQGTLVTVSS VL: EIVLTQSPATLSLSPGERATISCRSSQSLRHSAGNTYLQWYQQKPGQAPRLLIYKVSNRFSGVPARFSGSGSGTDFTLTISSLEPEDFAVYFCYQSKHVPYTFGGGTKVEIKR"
9230 MFI,0.56 nM,"H18L6_LC_N33K mAb, v40217 (antibody, human IgG1, kappa, V domains shown, M3-H18L6 chains with the stated light chain point mutation, IgG1/kappa) VH: QVQLVQSGAEVKKPGSSVKVSCKASGYTFTDYEMHWVKQAPGHGLEWIGAIDPETGDTAYNQKFKGKATLTADTSTSTAYMELSSLRSEDTAVYYCTRYFSFAYWGQGTLVTVSS VL: EIVLTQSPATLSLSPGERATISCRSSQSLRHSKGNTYLQWYQQKPGQAPRLLIYKVSNRFSGVPARFSGSGSGTDFTLTISSLEPEDFAVYFCYQSKHVPYTFGGGTKVEIKR"
